Usually stoichiometry N stands for the number of molecules, sites or subunits per partner or assembly.

Assay [1] has as its target R163W hCCS (human) (UniProt O14618). The experiment in a line: SEC; GE Superdex 200 10/300, TBS with 1 mM DTT, 0.5 ml/min, 500 μl loaded; high concentrations (series from 26 up to 918 μM before the column); monomer to dimer. Background: In gel filtration, larger molecules generally elute earlier.
Assay [2] shares this target. The assay can be described thus: SEC-MALS; Agilent BioSEC-3 column, 20 mM Tris-HCl, 150 mM NaCl (TBS) with 1 mM DTT, 20 °C; monomer to dimer.
The target in assay [3] is copper chaperone for SOD1 (hCCS), wild-type, zinc metalated (human) (UniProt O14618). The experiment in a line: SEC; non-reducing time course with metal apo SOD1: SOD1 reduced and desalted into oxygen purged TBS, mixed with hCCS (copper apo/zinc holo or copper(I) loaded), incubated at 20 °C (8 minutes to 20 hours), then SEC.
The target is the same in assay [4]. The assay can be described thus: SEC; reducing conditions as above but with metal apo (zinc deficient) SOD1, mixed 1:1 with Zn-hCCS; Agilent BioSEC-3, TBS with 1 mM DTT, 20 °C.
The target is the same in assay [5]. The assay can be described thus: SEC-MALS; Agilent BioSEC-3 column, 20 mM Tris-HCl, 150 mM NaCl (TBS) with 1 mM DTT, 20 °C; monomer to dimer.

For the substance “R163W hCCS (from UniProt O14618 1-274) (natural protein)”, the stoichiometry N in the assay with R163W hCCS (human) [1] and with R163W hCCS (human) [2] was 2 in each case.

Turning to “copper chaperone for SOD1 (hCCS), wild-type, zinc metalated (from UniProt O14618 1-274) (natural protein)”, the stoichiometry N in assay [3], in assay [4] and in assay [5] was 2 in each case.
